This is an account of results in article PMC5951767.

The target in data set [1] is RelA (p65), subunit of RelA-p50 heterodimer;p50, subunit of RelA-p50 heterodimer (mouse (murine);mouse (murine), UniProt Q04207;P25799 19-321;39-350, |). The experiment in a line: stopped-flow fluorescence.
For the next data set, the target named is RelA (p65) homodimer (UniProt Q04207 19-321). Put plainly: stopped-flow fluorescence.
Sequence of RelA (p65) homodimer (Q04207 19-321): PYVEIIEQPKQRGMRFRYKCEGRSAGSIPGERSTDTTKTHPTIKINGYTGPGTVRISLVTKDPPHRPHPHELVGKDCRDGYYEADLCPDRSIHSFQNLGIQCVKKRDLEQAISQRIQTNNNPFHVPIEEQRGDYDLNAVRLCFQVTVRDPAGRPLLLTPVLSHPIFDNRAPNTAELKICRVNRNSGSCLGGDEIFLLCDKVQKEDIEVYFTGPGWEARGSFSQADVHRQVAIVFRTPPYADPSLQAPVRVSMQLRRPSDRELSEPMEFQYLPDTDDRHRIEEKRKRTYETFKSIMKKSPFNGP

Sequence of RelA (p65), subunit of RelA-p50 heterodimer;p50, subunit of RelA-p50 heterodimer (Q04207 19-321, chain 1 of 2): as the sequence (Q04207 19-321) above
Sequence of RelA (p65), subunit of RelA-p50 heterodimer;p50, subunit of RelA-p50 heterodimer (P25799 39-350, chain 2 of 2): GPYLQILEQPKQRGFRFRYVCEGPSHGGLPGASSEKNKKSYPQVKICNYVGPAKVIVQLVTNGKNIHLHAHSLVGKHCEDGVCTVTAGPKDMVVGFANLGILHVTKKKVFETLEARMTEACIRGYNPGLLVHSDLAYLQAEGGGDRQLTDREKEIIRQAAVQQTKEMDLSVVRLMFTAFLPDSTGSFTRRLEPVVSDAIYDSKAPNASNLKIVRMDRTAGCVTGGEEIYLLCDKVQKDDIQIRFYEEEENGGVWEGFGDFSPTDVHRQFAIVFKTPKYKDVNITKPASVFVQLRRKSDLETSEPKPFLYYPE

On to GGGAAATTCCTCCCCCAGGAATTTCCC (structured_DNA, 5' AmMC6 amino linker) [IFN-kB hairpin], for which the binding result (in data set [1]; in the data set with RelA (p65) homodimer) was “binds” each time.
